In a protein production outcome set (Wang et al. 2014):

Assay: label from the status in PepcDB records

Row | Sequence | protein production
1 | MKKKLFSPIWLLPIVALALGAWLGIKSIKESGVEIQIHFPSATGIDVGKTLVKYQGLTVGKVKDIGIDDDLKGVNVKVMMDYRAKPFLNKETLFWLVTPKASITGVEGLDALFSGNYIAIQPGKGNAATFFEAERQPPPMQIGSEGVMIELTADKLGSLDVGSPVFFRQIPVGSVVSYRLDGNARVIISAFIQEQYARLVKKNSHFWNVSGVKVDASLAGIKVNTESLASILAGGVSFSSDEKAAAAQNGDSFALYDSETSALGGVEVSLTMNDGNGIDKGTRIVYRGISVGSIQSKNLTTTGVTAIAKFEPEYANLLTSDGRFWLEGADISLSGIKNPERLLTGSVINFLPGTNANTALPSSFALQSSAPDLLQAKKRLLTITSAENMGLTAGAEVRYKQLPIGQVLAVKLTKDLSAVEYQLELQPEFASLVRSDSYFIPESALSVDASIEGVSVKTRDLATLTKGAVSLIPGSNNTPVAANARLSLFSSVEEAKQFFERQQRLYFTLTSQDGADVSQGSPIYYKKMQIGRVESVNWQSKTEDFAIKIAIDKQFQPLMQKPKVFWRNSALDVSASLAGIDVAVAPLQGALKGSISLGLLENPLADPTASLKLYENKQLALAQAQAIRLTLSASAKLAAKAAIRYQGHQVGEVTQVKLNADLNTLSATAYLYGEYADHFSSSDAEYHMVEAQISLAGIKAPETLITGPYIGVLPGKSKQKATQFQAKLVESSYANVAEDALKFTLEDSNLGSMKVGTPIFFRGLKVGQIDGYSLSSQGNSVLMQAHIEPQYRHLVNKTSQFWDASGIKVDVGIFSGAQIEAGSLETLLAGGINVATKETTQANNRLSQGAVITLQHKAQTEWQEWAPAQ | failed
2 | MKKKLFYYLFAVLCTATLFTSCSDDDDEVKYPIDTELAGGYVGNLSVNVDGNQMGTTENQKITISQSNKETNQIALSLKNFTFLVNVGDIEVDPCTVKAIDGGYAFEGQQNLDLVQPLGNCPVSISGTVKGSNINIEIGVKVGAPLNQNVKATFVGRKLTGSESSEAKIISFILDDDIVTEQPIINEEEGIVTFKVSDAAVDDDLSGMIPTIVVSSKAKITPASGVAQDFSNGKKVEYTVTAEDGTTKKYSVFIAGSSDYYSFETWKSLNDGAFEEPDGGWATSNTGVWFIKTVYPDVYNGDYPVVKSEDAKDGAVGVKLITLDTKGQAGADWGFIKIPAIPKVTSGSLFLGTFETDIQNTLNSTKFGNPYYSKPISVQFSYKYTPGAVYYTCPDPVKAEAVTEDPNTTDECSVTAVIYEVPYWETVDPDDANNKAYDKRLTGANLYTNTDQVIAMATFSSGVQEDYKDITLTLNYEKDYDPTKKYRFAIVFSSSKNGDKFSGAPGSTLIVDNVKVVAEK | failed
3 | MKKKSFSIVIAGGGSTFTPGIVLMLLDHLEEFPIRKLKLYDNDKERQDRIAGACDVFIREKAPDIEFAATTDPEEAFTDVDFVMAHIRVGKYAMRALDEQIPLKYGVVGQETCGPGGIAYGMRSIGGVLEILDYMEKYSPDAWMLNYSNPAAIVAEATRRLRPNSKILNICDMPVGIEDRMAQILGLSSRKEMKVRYYGLNHFGWWTSIQDQEGNDLMPKLKEHVSQYGYIPKTEAEAVEASWNDTFAKARDVQAADPDTLPNTYLQYYLFPDDMVKKSNPNHTRANEVMEGREAFIFSQCDMITREQSSENSEIKIDDHASYIVDLARAIAYNTGERMLLIVENNGAIANFDPTAMVEVPCIVGSNGPEPITVGTIPQFQKGLMEQQVSVEKLTVEAWAEKSFQKLWQALILSKTVPNARVARLILEDLVEANKDFWPELDQSPTRIS | not failed
4 | MKKKYTIFAISMAVALVLGGEVQSINDSVEAQELQHTVKNVKQTEDFNPTKYANEIENFVKQQNPVSIKSLFSTIALKEKADFEKYGEANAAQVKMLWGSYVFFDFGFVKDSKIIEAIKNNPSVYAKFKKTVNINGTGAFLPGTGSPESISIKNNEDGSNIDSYAYYTPHNPDITKNADKTVVMHGGFRGGYEAGNDTPEIRTFYDKGYNILCVDNRATSLSGGDYVTFGQYESDDVQAWINHYLKDKPDQKIVLYGGSMGASTMMSVLAKNYSSNIKGIIENCGFANIRNELGYVYTMAAIGKNELKDLTGTDFAEDFSVTPMNLQKMMETINNYYIKPKANVDIDGNLPAQGITNAIMPKLFIHGESDLVVPFKDNGQYLATLGDTNNNYKFFVPKAGHGEAQTIDGNGYDKAISDYLNLIFK | failed
5 | MKKLKIVMTGGGSAGHVTPNLALVPKLKELGYEIEYIGTKDGIERSIIEKENIKYNCISSGKLRRYIDIKNFSDPFKVILGIFQSVSILRKKKPNIVFSKGGFVSVPVVIAAHFCRIPVIAHESDITPGLANRIAVPYCTKVCATFPESLNNIKGNKGILTGTPIRDELFKGSKIKGLEICGFTGEKPVLMIIGGSLGSKIIN | failed
6 | MKKLNIALLGLGTVGSGVVKIIEENRQQIQDTLNKDIVIKHILVRDKSKKRPLNISQYHLTEDVNEILNDDSLDIIVEVMGGIEPTVDWLRTALKNKKHVITANKDLLAVHLKLLEDLAEENGVALKFEASVAGGIPIVNAINNGLNANNISKFMGILNGTSNFILSKMTKEQTTFEEALDEAKRLGFAEADPTDDVEGVDAARKVVITSYLSFNQVIKLNDVKRRGISGVTLTDINVADQLGYKIKLIGKGIYENGKVNASVEPTLIDKKHQLAAVEDEYNAIYVIGDAVGDTMFYGKGAGSLATGSAVVSDLLNVALFFESDLHTLPPHFELKTDKTREMMDSDAEINIKEKSNFFVVVNHVKGSIENFENELKAILPFHRSLRVANYDNQSYAAVIVGLESSPEELITKHGYEVDKVYPVEGV | failed
7 | MKKLTVYLATTNPHKVEEIKMIAPEWMEILPSPEKIEVVEDGETFLENSVKKAVVYGKKLKHPVMADDSGLVIYSLGGFPGVMSARFMEEHSYKEKMRTILKMLEGKDRRAAFVCSATFFDPVENTLISVEDRVEGRIANEIRGTGGFGYDPFFIPDGYDKTFGEIPHLKEKISHRSKAFRKLFSVLEKILESENR | not failed
8 | MKKNDLSALQENCFCFCDEEISREAPFQVPIDFPEGFKVDTAEASAAVTWSTDNLSCISEPCLIQTGPEPEDIGVRYAVRVQGTITLLVSVSPVRNQYGQGDGAVSVIHTEEIDQVVYYAAQSGRCPDFSQITVEDLLIVPPFYGSPLTVAGTLVLPPSPDPQSYVFTANTGDSTVSVIDADLNTVVKTIPFSDVPTNLGVTFDKAFTYVLHGNTNLVSVIDNKTLTIINTITVGGGPRKIEFDPTDEFAYVMAAGSIYVINTASQSVIDVIPIPGALDFALDPNGQYVYTANGSSWSVDKYDVNTGQLVESIIDTFEFPSLITTPYAGNFAYVLNGELWPKGVTEISLSPLSRGGDFSRLFETLRTIVFSLDSTRAYFLEPYSEPFLINNLYVVNTARQRIIANVSLPGAFDLAVTPDKQYIYAAQPNDNAVTVYRTSDYTAVTVIPVGAGPSAIAMLEHHHHHH | failed
9 | MKKNILFIQGGGEGGYEADKHLVASLQQALGKDYAIQYPELSSDETAPDFGWPQQIGTLLSKTDDEIILAAHSLGASMLLKYLSEYVVKNKKIAGVFLLAAPFWEGKEEWKTGLKLKEHFSDTLPKDVPFFFYQCRDDEEVPFSHLEQYRKKLSRAAFREISSGGHTFHTDLSVLATDISAL | failed
10 | MKKNNAISNFYRILSIVLEIFIVAFSIYLAYMVRFRFRIIPPKFNYAPFERSLPFTIIVYMVFMYIFGLVDILKKSLWEIVYSIFLTVIMLFVFTMAITFSLRGFSYPRLVILLSSVFQFFLLSIFKCLWWKLERKIYGTKNTVIIGQNGESIAKKILLKHDDLYSISSIIKNYTEDKKSIVEKADIVLISDDLDENTKSTIIKESMYMNKNIFIVPSVTDIAFYKANFEQIDDVPILKVDTLELSAEQKTVKRLLDIVVAIIATVVFSPFLIILPIIIKCTDGGSPFYFQERVTNGGKKFKLIKFRSMIVNAEKHSGPVLVTENDSRITKIGKIMRATRLDEIPQLFNILKGDMSIVGPRPERPFYVEKFEKEIPDYKYRTFVKAGLTGLAQVLGKYNTTPEDKIKYDIMYIKNYSILLDIKLIIQTVKIMFMKESTEAVKDDVELEEILKKKNIKIKIY | failed
11 | MKKPVLETWLERGLFASRWLMAPFYVGLVVALAALMVVFFQELFQELPRVPSMTPESAILMALTLIDLSLAANLMVIVILSGYENFVSKIDTASHEDRPEWMGTVDFSGLKMKLIASIVAISAIALLKAFLKLTEPGQTVDQVRLFWLVMVHLSFVVSGVLLAVMDWLNAKVAKS | failed
